Article PMC10099132, “Sequence and Structural Motifs Controlling the Broad Substrate Specificity of the Mycobacterial Hormone-Sensitive Lipase LipN” (ACS Omega, 2023)

Experiments:
Assay in all cases: purified protein, by the assay type
[1] = substrate: CCCCC(=O)Oc1ccc([N+](=O)[O-])cc1; set-up: p-nitrophenyl ester hydrolysis, absorbance at 412 nm, Michaelis-Menten fit
From the text: (§1) (A) Classic p-nitrophenyl ester substrates were used as conformation for fluorogenic substrate measurements (Figure 1). (B) Catalytic efficiency comparison of MmLipN against p-nitrophenyl substrates. Catalytic efficiency values (kcat/Km) are given ± SD. (C, D) Kinetic activity of MmLipN against (C) short alkyl ester substrates: p-nitrophenyl acetate (C2) and p-nitrophenyl butyrate (C4) and (D) longer alkyl ester substrates: p-nitrophenyl valerate ([…]), p-nitrophenyl octonoate (C8), and p-nitrophenyl myristate (C14). Data points were fitted to the Michaelis–Menten equation and are shown ± SD.

[2] = substrate: CC(=O)Oc1ccc([N+](=O)[O-])cc1; set-up: p-nitrophenyl ester hydrolysis, absorbance at 412 nm, Michaelis-Menten fit
From the text: as §1

[3] = substrate: CCCCCCCC(=O)Oc1ccc([N+](=O)[O-])cc1; set-up: p-nitrophenyl ester hydrolysis, absorbance at 412 nm, Michaelis-Menten fit
From the text: as §1

[4] = substrate: CCCCCCCCCCCCCC(=O)Oc1ccc([N+](=O)[O-])cc1; set-up: p-nitrophenyl ester hydrolysis, absorbance at 412 nm, Michaelis-Menten fit
From the text: as §1

[5] = substrate: O=C1OC2(c3ccc(OCOC(=O)C4(c5ccccn5)CC4)cc3Oc3cc(OCOC(=O)C4(c5ccccn5)CC4)ccc32)c2ccccc21; set-up: fluorogenic ester hydrolysis, fluorescein release, Michaelis-Menten fit of initial rates
Protocol: (§2) The enzyme kinetic activity of LipN was assayed via the hydrolysis of the fluorogenic substrates (Figure 1) in accordance with past kinetic analysis of mycobacterial serine hydrolases.[37],[38],[40],[66],[67] Kinetic assays were run in triplicate on black 96-well plates in a Synergy H1 Hybrid Reader (BioTek). Fluorogenic ester substrates (10 mM in DMSO) were diluted to a starting concentration of 100 μM in PBS containing acetylated BSA (Sigma; 0.1 mg/mL). Eight serial dilutions (1:1; 120 μL into 240 μL total volume) of each substrate were made using PBS–BSA. Fluorogenic substrate dilutions (95 μL) were then transferred to opaque 96-well microplate (Corning, Lowell, MA). Reactions were initiated by quickly adding enzyme (5 μL, 3.0 nM final concentration) to each assay well, mixed, and the fluorescence counts measured every 26–30 s for 4.5 min with a BioTek H1 Synergy multimode plate reader (Biotek Instruments; Winooski, VT) at ambient temperature. The instrument measured relative fluorescence through excitation at λ = 485 nm and emission at λ = 520 nm. The fluorescence change was converted to molar concentrations using a fluorescein standard curve (300–2.3 nM), whose fluorescence was measured simultaneously. The initial rates of the enzyme-catalyzed reactions were measured in triplicate and plotted versus fluorogenic substrate concentration. […] (A) Activation of fluorogenic ester substrates by MmLipN. Each of the substrates is composed of diacyloxymethyl ether fluorescein with varying R-groups. The differing R-groups have been organized into classes and colored based on chemical functionality. All of the substrates were synthesized as described previously.[38],[43] Substrates 6, 10–11, 14–15, 20, 23–30, and 33 were newly synthesized for this characterization of MmLipN. Detailed synthetic characterization is provided in the Supporting Information. (B) Global comparison of the catalytic specificity (kcat/KM) of MmLipN against each of the 33 substrates with ester classes labeled. Catalytic efficiency values (kcat/Km) are given ± SD based on at least three independent kinetic replicates. (C, D) Kinetic activity of MmLipN against high-activity ester substrates 1 (black circles), 7 (blue squares), and 20 (red diamonds) and low-activity ester substrates 12 (green circles), 16 (red squares), 27 (purple diamonds), and 31 (orange squares). Low- and high-activity substrates display classic Michaelis–Menten kinetics with MmLipN and activity above background hydrolysis rates. Traces colored based on ester classification from (A, B). All measurements were completed in at least triplicate and shown ± SD.

[6] = substrate: CCCC(=O)OCOc1ccc2c(c1)Oc1cc(OCOC(=O)CCC)ccc1C21OC(=O)c2ccccc21; set-up: fluorogenic ester hydrolysis, fluorescein release, Michaelis-Menten fit of initial rates
Protocol: as §2

[7] = substrate: CC1(C)CC1C(=O)OCOc1ccc2c(c1)Oc1cc(OCOC(=O)C3CC3(C)C)ccc1C21OC(=O)c2ccccc21; set-up: fluorogenic ester hydrolysis, fluorescein release, Michaelis-Menten fit of initial rates
Protocol: as §2

[8] = substrate: COCC(=O)OCOc1ccc2c(c1)Oc1cc(OCOC(=O)COC)ccc1C21OC(=O)c2ccccc21; set-up: fluorogenic ester hydrolysis, fluorescein release, Michaelis-Menten fit of initial rates
Protocol: as §2

[9] = substrate: O=C1OC2(c3ccc(OCOC(=O)C4(c5ccccc5)CC4)cc3Oc3cc(OCOC(=O)C4(c5ccccc5)CC4)ccc32)c2ccccc21; set-up: fluorogenic ester hydrolysis, fluorescein release, Michaelis-Menten fit of initial rates
Protocol: as §2

[10] = substrate: CC(C)C(=O)OCOc1ccc2c(c1)Oc1cc(OCOC(=O)C(C)C)ccc1C21OC(=O)c2ccccc21; set-up: fluorogenic ester hydrolysis, fluorescein release, Michaelis-Menten fit of initial rates
Protocol: as §2

B1: MmLipN (LipN from M. marinum) (Mycobacterium marinum M) (protein)
chain: MTNSLPGETDLHPETVHATMSWLSRVQNTVTVVGAKVIPWVPDVAKRLITRGRSVIIDGNTLDPALQLMLSGMRVVGLDGLVIDDDLAASRAHMREAMLGFPGPQIHVDVEELTLPGPAGDISARHYRPPGDAAAPLLVFYHGGGWALGDLDTHDAVCRLTCRDAGIHVLAIDYRLSPEDRAPAAIDDAFAAFEWAHAHAAELGALPGRVAVGGDSAGGNLAAVVSQLARDSGGPAPIFQWLIYPRTDFAGRTRSASLFARGFLLTKRDIDWFHSQYLKGSGIEPTDPRVSPLRAESLAGLAPALIAVAGFDPLRDEGENYATALRAAGTPVDLRAMGSLTHGFLNLFPLGGGCAAATSELISALRAHLTRV
notes: E. coli LOBSTR (DE3); Ni-NTA
In the case of B1, the Km [1] is reported as 250 ± 70 µM, the kcat [1] is reported as 15 ± 1 s⁻¹ and the kcat/Km [1] is reported as 59000 ± 8000 M⁻¹ s⁻¹. For the same protein, the Km [2] was 2400 ± 1200 µM, the kcat [2] was 94 ± 8 s⁻¹ and the kcat/Km [2] was 39000 ± 10000 M⁻¹ s⁻¹. It also gave a Km [3] of 410 ± 330 µM, a kcat [3] of 1.1 ± 0.2 s⁻¹ and a kcat/Km [3] of 2700 ± 1100 M⁻¹ s⁻¹. It also gave a Km [4] of 120 ± 50 µM, a kcat [4] of 0.28 ± 0.02 s⁻¹ and a kcat/Km [4] of 2300 ± 400 M⁻¹ s⁻¹. It also gave a Km [5] of 0.049 ± 0.027 µM, a kcat [5] of 2.6e-05 ± 2e-05 s⁻¹ and a kcat/Km [5] of 530 ± 250 M⁻¹ s⁻¹. For the same protein, the Km [6] was 6.2 ± 0.1 µM, the kcat [6] was 0.062 ± 0.029 s⁻¹ and the kcat/Km [6] was 10000 ± 5000 M⁻¹ s⁻¹. It also gave a Km [7] of 1.7 ± 1.1 µM, a kcat [7] of 0.0011 ± 0.0018 s⁻¹ and a kcat/Km [7] of 660 ± 590 M⁻¹ s⁻¹. For the same protein, the Km [8] was 2.6 ± 1.1 µM, the kcat [8] was 0.11 ± 0.12 s⁻¹ and the kcat/Km [8] was 40000 ± 25000 M⁻¹ s⁻¹. For the same protein, the Km [9] was 13 ± 8 µM, the kcat [9] was 5.8e-05 ± 0.00014 s⁻¹ and the kcat/Km [9] was 4.4 ± 5.4 M⁻¹ s⁻¹. For the same protein, the Km [10] was 9.5 ± 2.2 µM, the kcat [10] was 0.017 ± 0.014 s⁻¹ and the kcat/Km [10] was 1800 ± 800 M⁻¹ s⁻¹.
